Reference: patent publication US7605133 (PANACEA PHARMACEUTICALS, dated 2009)
Ends that are not written are not given here.

B1: SLKRLPK (peptide)
peptide: SLKRLPK
notes: also called the peptide
B2: RLRGRNQ (peptide)
peptide: RLRGRNQ
notes: 7-mer from phage display
B3: WPFHHHR (peptide)
peptide: WPFHHHR
notes: 7-mer from phage display
B4: HLYHHKT (peptide)
peptide: HLYHHKT
notes: 7-mer from phage display
B5: THIHHPS (peptide)
peptide: THIHHPS
notes: 7-mer from phage display
B6: phage containing the SLKRLPK (SEQ ID NO: 7) peptide (peptide)
chain: SLKRLPK
modifications: also: displayed on phage coat protein
notes: also called SLKRLPK phage; not shown: phage coat protein that carries the 7-mer (New England Biolabs phage display kit); neither the protein nor any linker is

Assays:
[1] = biological target: α-synuclein (recombinant, wildtype) (human, UniProt P37840 1-140); assay: cell-based or functional assay
[2] = biological target: T1, NAC portion of α-synuclein (approx. amino acids 61-87) (human, UniProt P37840 61-87); assay: phage display selection
T1 construct: range 61-87; also called α-synuclein 61-87 peptide

[3] = biological target: T1, NAC portion of α-synuclein (approx. …); assay: phage display selection with the α-synuclein 121-131 and 61-87 peptides as the bait

Binder	inhibition of iron-induced α-synuclein aggregation in vitro, densitometric quantification, 10-fold excess of the peptide [1] [%]	binding result [2]	binding result [3]
B1	38	binds	
B2		binds	
B3		binds	
B4		binds	
B5		binds	
B6			binds
